Substrate: C[C@H](NC(=O)[C@H](Cc1ccccc1)NC(=O)OCc1ccccc1)C(=O)O
Test: Flow digestion of N-CBZ-peptides through CPD-Y Acti Disk, ninhydrin assays
Format: biochemical, yeast
Conditions: other: free enzyme; calculated from Sigma specific activity
Description: The reported Km values for CPD-Y have been generated using extremely low enzyme concentration compared to substrate concentration. The value for Km represents the concentration of substrate that will produce 1/2 the maximum velocity for the initial reaction rates. During the testing of the immobilized CPD-Y enzyme disks with various dipeptide substrates, the maximum flow rate that can be achieved without any substantial increase in the pressure of the solution, is 4 ml/min. At this flow rate, the substrate remains within the immobilized enzyme matrix for 1.74 seconds. This value is determined by dividing the internal porous volume of the matrix to which the enzyme is immobilized (115 μL/4000 μL, min^-1). […]
Standard ninhydrin assay: Hydrolysis of the non-proline containing N-CBZ-dipeptides was determined by assaying the amount of free amino acid released by a colorometric ninhydrin reaction at a pH greater than 5.2. […] Samples were then cooled to room temperature and 600 μl of 60% ethanol was added as the diluent and the absorbance was read at 570 nm on a Beckman DU 7000 spectrophotometer.
Proline ninhydrin assay: Hydrolysis of proline-containing N-CBZ-dipeptides were measured with a modified version of the assay described by Magne and Larher [Anal. Biochem., 200:115 (1982)]. […]

B1: carboxypeptidase Y (CPD-Y) immobilized to Acti-Disk (Saccharomyces cerevisiae S288C) (protein)
chain: KIKDPKILGIDPNVTQYTGYLDVEDEDKHFFFWTFESRNDPAKDPVILWLNGGPGCSSLTGLFFELGPSSIGPDLKPIGNPYSWNSNATVIFLDQPVNVGFSYSGSSGVSNTVAAGKDVYNFLELFFDQFPEYVNKGQDFHIAGESYAGHYIPVFASEILSHKDRNFNLTSVLIGNGLTDPLTQYNYYEPMACGEGGEPSVLPSEECSAMEDSLERCLGLIESCYDSQSVWSCVPATIYCNNAQLAPYQRTGRNVYDIRKDCEGGNLCYPTLQDIDDYLNQDYVKEAVGAEVDHYESCNFDINRNFLFAGDWMKPYHTAVTDLLNQDLPILVYAGDKDFICNWLGNKAWTDVLPWKYDEEFASQKVRNWTASITDEVAGEVKSYKHFTYLRVFNGGHMVPFDVPENALSMVNEWIHGGFSL
notes: purchased Sigma
  kcat: 103.3 s⁻¹

— US5935824A, “Protein expression system” (Technologene, Inc., priority 1996, dated 1999)
